Test results published in patent US20120201751A1.

Assays:
[1] = molecular target: Recombinant human CD44/Fc (R&D Systems, Minneapolis) (human) (UniProt P16070); test: SPR (Biacore T100), rhCD44/Fc amine-coupled to CM5, antibody injected 0.67-667 nM, 1:1 model
[2] = molecular target: Recombinant human CD44/Fc (R&D Systems, Minneapolis) (human) (UniProt P16070); test: SPR (Biacore T100), recombinant human CD44/Fc amine-coupled to a CM5 chip, 1:1 interaction model; column head Kd (1/s)
[3] = molecular target: Recombinant human CD44/Fc (R&D Systems, Minneapolis) (human) (UniProt P16070); test: SPR (Biacore T100), recombinant human CD44/Fc amine-coupled to a CM5 chip, 1:1 interaction model; column head Ka (1/Ms)

B1: (hu)ARH460-16-2 variant HV1/KV1 (antibody, V domains shown)
VH: EVQLVESGGGLVQPGGSLRLSCAASGFDFSRYWMSWVRQAPGKGLVWVGEVNPDSTSINYTPSLKDRFTISRDNAKNTLYLQMNSLRAEDTAVYYCTRPNYYGSRYHYYAMDYWGQGTLVTVSS
VL: DIQMTQSPSSLSASVGDRVTITCRASQDINNYLNWYQQKPGKAPKLLIYYTSRLHSGVPSRFSGSGSGTDFTFTISSLQPEDIATYYCQQGSTLPFTFGQGTKLEIK
Kd [1]: 6.32 nM
koff [2]: 0.000225 s⁻¹
kon [3]: 35400 M⁻¹ s⁻¹
